# Measurements reported in US20200339638.
# How the values were obtained:
# Assay in all cases: cell_activity
# ZFP-TF 75109 (synthetic) = settings: expanded isoform, C9 patient fibroblasts; about 50% total C9 maintained
# ZFP-TF 75114 (synthetic) = settings: expanded sense transcript, C9021 fibroblasts; total C9 preserved >50%; no repression in C9-BAC mice (p172)
# ZFP-TF 75115 (synthetic) = settings: expanded sense transcript, C9021 fibroblasts; total C9 preserved >50%
sequence,measurement,setting,value
"CACGCCCCGGCCCCGGCCCCGGCCCCTA (double strand) [C9orf72 antisense target, frame 4]",activity,ZFP-TF 75109 (synthetic),70 % repression
same,activity,ZFP-TF 75114 (synthetic),> 70 % repression
same,activity,ZFP-TF 75115 (synthetic),> 70 % repression
